Laboratory results taken from patent US20030054488A1 (published 2003).

What was measured:
[1] = target: T1, rMBPΔII Ser to Ala mutant in position 57
T1 chain: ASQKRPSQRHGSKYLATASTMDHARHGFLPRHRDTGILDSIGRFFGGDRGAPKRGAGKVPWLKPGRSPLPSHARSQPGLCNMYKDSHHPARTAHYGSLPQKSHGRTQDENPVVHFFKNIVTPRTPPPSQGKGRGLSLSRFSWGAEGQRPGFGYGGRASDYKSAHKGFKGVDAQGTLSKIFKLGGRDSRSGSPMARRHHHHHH

GPΔIII derived peptide = target: T2, GPΔIII derived peptide
T2 chain: QRAHGQDLDALFVKVLRSP

[2] = target: T3, recombinant 21 kDa myelin basic protein (rMBP), P02686
T3 chain: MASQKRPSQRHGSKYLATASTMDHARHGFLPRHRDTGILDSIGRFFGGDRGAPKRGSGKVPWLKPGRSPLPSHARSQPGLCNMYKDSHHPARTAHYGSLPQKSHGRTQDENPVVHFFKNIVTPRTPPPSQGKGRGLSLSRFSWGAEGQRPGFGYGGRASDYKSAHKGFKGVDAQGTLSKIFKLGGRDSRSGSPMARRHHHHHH

[3] = target: T4, Human recombinant GP antigen (rGP) produced in 293 cells, Q01955
T4 chain: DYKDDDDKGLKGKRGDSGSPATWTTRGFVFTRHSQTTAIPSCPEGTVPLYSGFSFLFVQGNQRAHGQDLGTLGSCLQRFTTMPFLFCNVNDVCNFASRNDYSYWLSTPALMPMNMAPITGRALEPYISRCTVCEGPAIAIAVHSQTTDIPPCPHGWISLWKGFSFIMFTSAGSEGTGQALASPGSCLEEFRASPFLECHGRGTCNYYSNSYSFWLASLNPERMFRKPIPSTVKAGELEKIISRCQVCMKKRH

[4] = target: T5, native human GP antigen (alpha3(IV)NC1 domain), Q01955
T5 chain: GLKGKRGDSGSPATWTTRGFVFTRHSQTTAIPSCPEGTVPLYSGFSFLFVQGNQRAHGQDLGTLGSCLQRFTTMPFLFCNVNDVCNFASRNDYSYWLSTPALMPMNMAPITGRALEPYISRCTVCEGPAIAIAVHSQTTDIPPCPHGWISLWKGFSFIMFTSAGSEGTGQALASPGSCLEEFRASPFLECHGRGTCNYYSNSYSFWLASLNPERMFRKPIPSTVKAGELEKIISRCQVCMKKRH

[5] = target: T6, rMBP Ser to Ala mutant in position 57, P02686
T6 chain: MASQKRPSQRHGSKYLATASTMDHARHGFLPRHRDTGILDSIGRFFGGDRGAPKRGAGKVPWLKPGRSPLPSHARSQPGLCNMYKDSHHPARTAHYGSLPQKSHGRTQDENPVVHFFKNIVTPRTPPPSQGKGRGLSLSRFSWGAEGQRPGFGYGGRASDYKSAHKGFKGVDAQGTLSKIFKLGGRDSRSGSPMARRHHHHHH

[6] = target: T7, rMBPΔII Ser to Ala mutant in position 8
T7 chain: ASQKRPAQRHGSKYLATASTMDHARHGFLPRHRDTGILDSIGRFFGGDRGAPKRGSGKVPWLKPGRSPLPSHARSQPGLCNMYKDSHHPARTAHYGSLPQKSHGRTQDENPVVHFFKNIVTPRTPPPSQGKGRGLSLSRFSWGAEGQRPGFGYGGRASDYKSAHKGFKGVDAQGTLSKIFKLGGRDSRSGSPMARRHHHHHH

GPpep1 = target: T8, GPpep1
T8 chain: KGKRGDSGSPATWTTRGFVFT

[7] = target: T9, rMBP Ser to Ala mutant in position 8, P02686
T9 chain: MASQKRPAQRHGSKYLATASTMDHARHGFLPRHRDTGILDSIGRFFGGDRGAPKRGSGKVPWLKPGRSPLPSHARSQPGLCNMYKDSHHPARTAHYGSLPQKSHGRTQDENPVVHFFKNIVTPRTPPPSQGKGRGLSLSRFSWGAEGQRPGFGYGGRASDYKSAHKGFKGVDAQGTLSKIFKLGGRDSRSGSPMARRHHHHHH

[8] = target: T10, recombinant 18.5 kDa myelin basic protein lacking exon II (rMBPΔII)
T10 chain: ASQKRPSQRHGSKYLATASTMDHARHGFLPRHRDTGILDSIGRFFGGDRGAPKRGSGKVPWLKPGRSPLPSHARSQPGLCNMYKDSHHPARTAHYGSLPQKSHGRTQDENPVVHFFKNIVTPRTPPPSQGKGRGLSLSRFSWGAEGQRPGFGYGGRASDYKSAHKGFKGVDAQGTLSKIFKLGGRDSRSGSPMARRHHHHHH

GPpep1 Ala9 = target: T11, GPpep1 Ala9
T11 chain: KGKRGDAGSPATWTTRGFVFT

[9] = target: T12, HeLa1 beta-galactosidase-derived fusion protein containing the N-terminal 150 residues of GPBP (human, UniProt Q5R6M6 1-150 (Pongo abelii entry)); assay: lambda-gt11 expression library filters overlaid with GPpep1, detected with monoclonal antibody
T12 construct: Expressed from the lambda-gt11 clone on library filters and as a lysogen in E. coli Y1089; also called HeLa1 lambda-gt11 fusion protein; not shown: beta-galactosidase part encoded by the lambda-gt11 vector
T12 sequence: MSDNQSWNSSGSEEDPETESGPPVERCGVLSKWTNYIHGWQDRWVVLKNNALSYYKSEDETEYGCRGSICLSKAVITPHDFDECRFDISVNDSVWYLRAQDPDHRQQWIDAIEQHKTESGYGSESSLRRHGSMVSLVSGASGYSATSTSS
Method: Isolation and characterization of cDNA clones encoding human GPBP—Several human λ-gt11 cDNA expression libraries (eye, fetal and adult lung, kidney and HeLa S3, from CLONTECH) were probed for cDNAs encoding proteins interacting with GPpep1. Nitrocellulose filters (Millipore) prepared following standard immunoscreening procedures were blocked and incubated with 1-10 nmoles per ml of GPpep1 at 37° C. Specifically bound GPpep1 was detected using M3/1A monoclonal antibodies (7). A single clone was identified in the HeLa-derived library (HeLa1). Specificity of fusion protein binding was confirmed by similar binding to recombinant eukaryotic human GP antigen. The EcoRI cDNA insert of HeLa1 (0.5-kb) was used to further screen the same library and to isolate overlapping cDNAs. The largest cDNA (2.4-kb) containing the entire cDNA of HeLa1 (n4′) was fully sequenced.

[10] = target: the molecule itself; assay: gel filtration HPLC and analytical ultracentrifugation (peak II 220±10 kDa, likely trimers)
Method: FIG. 11. rGPBP and rGPBPΔ26 form very active high molecular weight aggregates. About 300 μg of rGPBP (A) or rGPBPΔ26 (B) were subjected to gel filtration HPLC as described under Material and Methods. Vertical arrowheads and numbers respectively indicate the elution profile and molecular mass (kDa) of the molecular weight standards used. Larger aggregates eluted in the void volume (I), and the bulk of the material present in the samples eluted in the fractionation range of the column as a second peak between the 669 and 158 kDa markers (II). Fifteen microliters of the indicated minute fractions were subjected to SDS-PAGE and Coomasie blue staining. Five microliters of the same fractions were in vitro phosphorylated as described in Materials and Methods, and the reaction stopped by boiling in SDS sample buffer. […]
Gel-filtration HPLC. […] The material was eluted from the column at 0.5 ml/min, monitored at 220 nm and minute fractions collected.
rGPBP and rGPBP-26 exist as very active high molecular weight aggregates. Gel filtration analysis of affinity-purified rGPBP or rGPBPΔ26 yielded two chromatographic peaks (I and II), both displaying higher MW than expected for the individual molecular species, as determined by SDS-PAGE studies (89 kDa and 84 kDa, respectively ) (FIG. 11). […] ATP, and analyzed by immunoblot and autoradiography.

B1: FLAG-tagged recombinant GPBP (rGPBP) (protein)
chain: DYKDDDDKMSDNQSWNSSGSEEDPETESGPPVERCGVLSKWTNYIHGWQDRWVVLKNNALSYYKSEDETEYGCRGSICLSKAVITPHDFDECRFDISVNDSVWYLRAQDPDHRQQWIDAIEQHKTESGYGSESSLRRHGSMVSLVSGASGYSATSTSSFKKGHSLREKLAEMETFRDILCRQVDTLQKYFDACADAVSKDELQRDKVVEDDEDDFPTTRSDGDFLHSTNGNKEKLFPHVTPKGINGIDFKGEAITFKATTAGILATLSHCIELMVKREDSWQKRLDKETEKKRRTEEAYKNAMTELKKKSHFGGPDYEEGPNSLINEEEFFDAVEAALDRQDKIEEQSQSEKVRLHWPTSLPSGDAFSSVGTHRFVQKPYSRSSSMSSIDLVSASDDVHRFSSQVEEMVQNHMTYSLQDVGGDANWQLVVEEGEMKVYRREVEENGIVLDPLKATHAVKGVTGHEVCNYFWNVDVRNDWETTIENFHVVETLADNAIIIYQTHKRVWPASQRDVLYLSVIRKIPALTENDPETWIVCNFSVDHDSAPLNNRCVRAKINVAMICQTLVSPPEGNQEISRDNILCKITYVANVNPGGWAPASVLRAVAKREYPKFLKRFTSYVQEKTAGKPILF
^32P incorporation, in vitro phosphorylation (native bovine GP antigen): no appreciable ^32P-incorporation was observed in the bovine-derived substrate | ^32P incorporation, in situ phosphorylation of blotted substrate [1]: recombinant Ser to Ala mutants displayed no significant reduction in ^32P incorporation | GPBP autophosphorylation, 5 nmol peptide, Boc chemistry (GPΔIII derived peptide): Boc-based synthetic peptides positively influenced GPBP autophosphorylation | GPBP autophosphorylation, 5 nmol peptide, Fmoc chemistry (GPΔIII derived peptide): Fmoc-based inhibited GPBP autophosphorylation | ^32P incorporation, in situ phosphorylation of blotted substrate [2]: GPBP preferentially phosphorylated MBP | ^32P incorporation, in vitro phosphorylation [3]: Affinity-purified rGPBP phosphorylates all human-derived material to a different extent | ^32P incorporation, in vitro phosphorylation [4]: Affinity-purified rGPBP phosphorylates all human-derived material to a different extent | ^32P incorporation, in situ phosphorylation of blotted substrate [5]: recombinant Ser to Ala mutants displayed no significant reduction in ^32P incorporation | ^32P incorporation, in situ phosphorylation of blotted substrate [6]: recombinant Ser to Ala mutants displayed no significant reduction in ^32P incorporation | ^32P incorporation, in vitro phosphorylation (GPpep1): Affinity-purified rGPBP phosphorylates all human-derived material to a different extent | ^32P incorporation, in situ phosphorylation of blotted substrate [7]: recombinant Ser to Ala mutants displayed no significant reduction in ^32P incorporation | ^32P incorporation, in situ phosphorylation of blotted substrate [8]: little phosphorylation of MBPΔII was observed | ^32P incorporation, in vitro phosphorylation (GPpep1 Ala9): The lower ^32P incorporation displayed by GPpep1 Ala^9 when compared with GPpep1

B2: GPpep1 (peptide)
peptide: KGKRGDSGSPATWTTRGFVFT
notes: also called 21-residue peptide representing residues 3-23 of the human GP antigen
binding result [9]: binds

B3: FLAG-tagged recombinant GPBP (rGPBP) (enzyme)
chain: DYKDDDDKMSDNQSWNSSGSEEDPETESGPPVERCGVLSKWTNYIHGWQDRWVVLKNNALSYYKSEDETEYGCRGSICLSKAVITPHDFDECRFDISVNDSVWYLRAQDPDHRQQWIDAIEQHKTESGYGSESSLRRHGSMVSLVSGASGYSATSTSSFKKGHSLREKLAEMETFRDILCRQVDTLQKYFDACADAVSKDELQRDKVVEDDEDDFPTTRSDGDFLHSTNGNKEKLFPHVTPKGINGIDFKGEAITFKATTAGILATLSHCIELMVKREDSWQKRLDKETEKKRRTEEAYKNAMTELKKKSHFGGPDYEEGPNSLINEEEFFDAVEAALDRQDKIEEQSQSEKVRLHWPTSLPSGDAFSSVGTHRFVQKPYSRSSSMSSIDLVSASDDVHRFSSQVEEMVQNHMTYSLQDVGGDANWQLVVEEGEMKVYRREVEENGIVLDPLKATHAVKGVTGHEVCNYFWNVDVRNDWETTIENFHVVETLADNAIIIYQTHKRVWPASQRDVLYLSVIRKIPALTENDPETWIVCNFSVDHDSAPLNNRCVRAKINVAMICQTLVSPPEGNQEISRDNILCKITYVANVNPGGWAPASVLRAVAKREYPKFLKRFTSYVQEKTAGKPILF
modifications: contains phosphoserine, phosphothreonine and phosphotyrosine; positions not given
notes: Expressed in Pichia pastoris (pHIL-FLAG-n4') or in 293 cells (pc-FLAG-n4'); ON-GPBP-54m also encodes an initiation Met and a few residues before the FLAG; also called yeast rGPBP; FLAG-n4'
binding result [10]: binds
